In the supplement of paper PMC9170038:

Test system: MS2 coat protein
Experiment: apparent KD of MS2 coat protein; designed switch direction (-1 OFF switch, 1 ON switch): -1; higher = weaker reporter binding
Method in brief: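 The buffer was Tris-HCl pH 7.5 with KCl, MgCl2, BSA, DTT, tRNA and Tween-20. In it, SNAP-549-labelled MS2 coat protein was titrated in doubling steps from 0.7 or 1.5 nM to 3 µM over chip-bound RNA switches transcribed by stalled E. coli RNA polymerase on Illumina chips. Apparent KD is the per-design median over clusters of curve fits to normalised fluorescence.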

[1] = input ligand: microRNA oligo, concentration not stated
[2] = Eterna round: R95, input ligand: FMN 200 uM
[3] = Eterna round: R95, input ligand: microRNA oligo, concentration not stated
[4] = Eterna round: R95, input ligand: none

“AGUAAUUCAAGAGGAUAUCACAUGAGGAUCACCCAUGUAUAGCGCGCUACGCUAGUCCUCGUAUUUGAGAAGGUUUGAUAAAAG [Mat - Exclusion NG 2 - Mod of JL - D76] (Eterna round: R96, puzzle: Exclusion NG 2)” was tested, and the “apparent KD of MS2 coat protein” value (input ligand: FMN 200 uM) was 18.7 nM, the “apparent KD of MS2 coat protein” value [1] was 13.4 nM and the “apparent KD of MS2 coat protein” value (input ligand: none) was 17.5 nM.

“AGUAAUUCAAGAGGAUAUCACAUGAGGAUCACCCAUGUAUAGCGCGCUACGCUAGUCCUCGUAUUUGAGAAGGUUUGAUAAAUG [JL ViennaUCT Quve mod 1] (Eterna round: R96, puzzle: Exclusion NG 2)” was tested, and the “apparent KD of MS2 coat protein” value (input ligand: FMN 200 uM) was 14.4 nM, the “apparent KD of MS2 coat protein” value [1] was 12.5 nM and the “apparent KD of MS2 coat protein” value (input ligand: none) was 17.1 nM.

With “AGUACAUUCACGAAAGUGAAUGUACAAUAAGCUUGUGGAACAUGAGGAUCACCCAUGUCCUCAUAAGCUCGUCUUAU [Mat - Sensor v3 - Turn-off var 2 - D31] (puzzle: Sensor v3, turn-off variant 2)” the “apparent KD of MS2 coat protein” value [2] was 16.1 nM, the “apparent KD of MS2 coat protein” value [3] was 68.7 nM and the “apparent KD of MS2 coat protein” value [4] was 14.6 nM.

“AGUACCUGAGUACAAUGUAACAUGAGGAUCACCCAUGUAAUUGGGUGAGAACAAGCUCACCGUUCGUCUUAAAUAAA [JL turnoff v1 80] (Eterna round: R96, puzzle: Sensor v2, turn-off variant)” was tested, and the “apparent KD of MS2 coat protein” value (input ligand: FMN 200 uM) was 485 nM, the “apparent KD of MS2 coat protein” value [1] was 55.3 nM and the “apparent KD of MS2 coat protein” value (input ligand: none) was 501 nM.

In the case of “AGUACUAACACGAAAGUGUUAGUACAAUAAGCUUGUGGAACAUGAGGAUCACCCAUGUCCUCAUAAGCUCGUCUUAU [JL-sv3-2.12 mat747 mod] (puzzle: Sensor v3, turn-off variant 2)”, the “apparent KD of MS2 coat protein” value [2] is reported as 16.8 nM, the “apparent KD of MS2 coat protein” value [3] is reported as 71.4 nM and the “apparent KD of MS2 coat protein” value [4] is reported as 16.9 nM.

For “AGUACUAACACGAAAGUGUUAGUACUAUAAGCUUGUGUUACAUGAGGAUCACCCAUGUCCUCAUAAGCUCGUCUUAU [JL-sv3-2.15 mat747 mod] (puzzle: Sensor v3, turn-off variant 2)”, the “apparent KD of MS2 coat protein” value [2] was 86.4 nM, the “apparent KD of MS2 coat protein” value [3] was 31.8 nM and the “apparent KD of MS2 coat protein” value [4] was 115 nM.

With “AGUACUAACACGAAAGUGUUAGUGCAAUAAGCUUGUGAAACAUGAGGAUCACCCAUGUCCUCAUAAGCUCGUCUUAU [salish99_TOv2_r3_039] (puzzle: Sensor v3, turn-off variant 2)” the “apparent KD of MS2 coat protein” value [2] was 15.6 nM, the “apparent KD of MS2 coat protein” value [3] was 582 nM and the “apparent KD of MS2 coat protein” value [4] was 16.2 nM.

In the case of “AGUACUAACACGAAAGUGUUCGUACAAUAAGCUUGUGAAACAUGAGGAUCACCCAUGUCCUCAUAAGCUCGUCUUAU [salish99_TOv2_r3_037] (puzzle: Sensor v3, turn-off variant 2)”, the “apparent KD of MS2 coat protein” value [2] is reported as 16.6 nM, the “apparent KD of MS2 coat protein” value [3] is reported as 810 nM and the “apparent KD of MS2 coat protein” value [4] is reported as 15.6 nM.

“AGUACUAACACGAGAGUGUUAGUACUAUAAGCUUGUGUUACAUGAGGAUCACCCAUGUCCUCAUAAGCUCGUCUUAA [Mat - Sensor v3 - Turn-off var 2 - D64] (puzzle: Sensor v3, turn-off variant 2)” was tested, and the “apparent KD of MS2 coat protein” value [2] was 33.3 nM, the “apparent KD of MS2 coat protein” value [3] was 185 nM and the “apparent KD of MS2 coat protein” value [4] was 35.8 nM.

With “AGUACUAACACGAUAGUGUUAGUACUAUAAGCUUGUGUUACAUGAGGAUCACCCAUGUCCUCAUAAGCUCGUCUUAU [Mat - Sensor v3 - Turn-off var 2 - D78] (puzzle: Sensor v3, turn-off variant 2)” the “apparent KD of MS2 coat protein” value [2] was 95.6 nM, the “apparent KD of MS2 coat protein” value [3] was 118 nM and the “apparent KD of MS2 coat protein” value [4] was 101 nM.

In the case of “AGUACUAACACGGUUGUGUUAGUACAAUAAGCUUGUGAAACAUGAGGAUCACCCAUGUCCUCAUAAGCUCGUCUUAU [salish99_TOv2_r3_070] (Eterna round: R96, puzzle: Sensor v3, turn-off variant 2)”, the “apparent KD of MS2 coat protein” value (input ligand: FMN 200 uM) is reported as 15 nM, the “apparent KD of MS2 coat protein” value [1] is reported as 464 nM and the “apparent KD of MS2 coat protein” value (input ligand: none) is reported as 17.3 nM.

In the case of “AGUACUAACACGGUUGUGUUAGUACAAUAAGCUUGUGAAACAUGAGGAUCACCCAUGUCCUCAUAAGCUCGUCUUAU [salish99_TOv2_r3_070] (puzzle: Sensor v3, turn-off variant 2)”, the “apparent KD of MS2 coat protein” value [2] is reported as 16.1 nM, the “apparent KD of MS2 coat protein” value [3] is reported as 954 nM and the “apparent KD of MS2 coat protein” value [4] is reported as 15.1 nM.

In the case of “AGUAGUUCAGGAUAUGAUGUUGAGUACAUGAGGAUCACCCAUGUAGGUCCUGGAUUUGCAUCAGAAGGGAAUAACU [JR_Ex5_Sub084] (Eterna round: R97, puzzle: Exclusion 5)”, the “apparent KD of MS2 coat protein” value (input ligand: FMN 200 uM) is reported as 59 nM and the “apparent KD of MS2 coat protein” value (input ligand: none) is reported as 26.7 nM.

For “AGUAUGUUAGGAUAUUCCAUUGCUGUCAGCUCGGCGUCACAGAAGAAGGGACAUGAGGAUCACCCAUGUUAGGC [Eternabot (L1) Solution 96] (Eterna round: R97, puzzle: Exclusion 4)”, the “apparent KD of MS2 coat protein” value (input ligand: FMN 200 uM) was 57.3 nM and the “apparent KD of MS2 coat protein” value (input ligand: none) was 71.4 nM.

“AGUCAGGCGGUAGGAUAUCCAAACCGAGUGACCCUUACAUAACAUGAGGAUCACCCAUGUCGGUGGGAGAAGGGCCGUAAGGCA [Mat - Exclusion NG 2 - Mod of JL - D67] (Eterna round: R96, puzzle: Exclusion NG 2)” was tested, and the “apparent KD of MS2 coat protein” value (input ligand: FMN 200 uM) was 517 nM, the “apparent KD of MS2 coat protein” value [1] was 349 nM and the “apparent KD of MS2 coat protein” value (input ligand: none) was 113 nM.

For “AGUCCGUCAGGAUAUGCAAUUGUGGACAUGAGGAUCACCCAUGUAACGUGGGCAUGGUUUGUAGAAGGGACGUGCA [EX5 #92] (Eterna round: R97, puzzle: Exclusion 5)”, the “apparent KD of MS2 coat protein” value (input ligand: FMN 200 uM) was 129 nM and the “apparent KD of MS2 coat protein” value (input ligand: none) was 95.3 nM.

For “AGUCGGUCAGGAUAUGCAGACGUAGACAUGAGGAUCACCCAUGUGACGUGGGCCUGGUUUGUAGAAGGGACGAGCA [EX5 #83] (Eterna round: R97, puzzle: Exclusion 5)”, the “apparent KD of MS2 coat protein” value (input ligand: FMN 200 uM) was 30.2 nM and the “apparent KD of MS2 coat protein” value (input ligand: none) was 19.3 nM.

“AGUCUGCGAGGAUAUACAUGAGGAUCACCCAUGUGCGAGAAACUAGUGAGGUCGAUUGGUAGAAGGCGCGGACA [Mat - Exclusion 3 - Mod of JL D87] (puzzle: Exclusion 3)” was tested, and the “apparent KD of MS2 coat protein” value [2] was 34.7 nM, the “apparent KD of MS2 coat protein” value [3] was 200 nM and the “apparent KD of MS2 coat protein” value [4] was 356 nM.

“AGUGUGAGGCAGGAUAUGCAAUUUGUAAGUAAUGCAGAAGGGUCUACAUGAGGAUCACCCAUGUGUGCGGUUGA [Ex6 #11] (Eterna round: R97, puzzle: Exclusion 6)” was tested, and the “apparent KD of MS2 coat protein” value (input ligand: FMN 200 uM) was 447 nM and the “apparent KD of MS2 coat protein” value (input ligand: none) was 246 nM.

In the case of “AGUGUGUGGCAGGAUAUGCAAUUAAUAGGUGAAGCAGAAGGGUCUACAUGAGGAUCACCCAUGUGUGCGGUUGA [Ex6 #22] (Eterna round: R97, puzzle: Exclusion 6)”, the “apparent KD of MS2 coat protein” value (input ligand: FMN 200 uM) is reported as 154 nM and the “apparent KD of MS2 coat protein” value (input ligand: none) is reported as 139 nM.

In the case of “AGUUAUUCAGGAUAUGGUGUGUUAUACAUGAGGAUCACCCAUGUGGGUCAUGGUUAGGCCUCAGAAGGGAAUGUUA [salish99_ex5_r4_125] (Eterna round: R97, puzzle: Exclusion 5)”, the “apparent KD of MS2 coat protein” value (input ligand: FMN 200 uM) is reported as 796 nM and the “apparent KD of MS2 coat protein” value (input ligand: none) is reported as 1100 nM.

For “AGUUCACAUGAGGAUCACCCAUGUGAGGAUAUGGUUUCGCUGGCCGUAGCCAGUGGAACCAGAAGGCGCAUGAU [Mat - Exclusion 1 - JL Mod - D14] (Eterna round: R97, puzzle: Exclusion 1)”, the “apparent KD of MS2 coat protein” value (input ligand: FMN 200 uM) was 38.6 nM and the “apparent KD of MS2 coat protein” value (input ligand: none) was 34.5 nM.

For “AGUUGGCGAGGAUAUACAUGAGGAUCACCCAUGUGAGAGAUACUAGUGAGGUCGAUUGGUAGAAGGCGCUGACA [Mat - Exclusion 3 - Mod of JL D80] (puzzle: Exclusion 3)”, the “apparent KD of MS2 coat protein” value [3] was 91.5 nM.

“AGUUGGCGAGGAUAUACAUGAGGAUCACCCAUGUGAGAGAUACUAGUGAGGUCGAUUGGUAGAAGGCGCUGACA [Mat X3R4 m19] (Eterna round: R97, puzzle: Exclusion 3)” was tested, and the “apparent KD of MS2 coat protein” value (input ligand: FMN 200 uM) was 70.8 nM and the “apparent KD of MS2 coat protein” value (input ligand: none) was 106 nM.

In the case of “AUAAAUAAGGAGGAUAUCGUAUCGGAAACGAUACGAGAAGGCCUAACAUGAGGAUCACCCAUGUUCCUUAAAUA [Mat - Exclusion 6 - Eli Mod - D62] (puzzle: Exclusion 6)”, the “apparent KD of MS2 coat protein” value [2] is reported as 40.9 nM, the “apparent KD of MS2 coat protein” value [3] is reported as 24.1 nM and the “apparent KD of MS2 coat protein” value [4] is reported as 21.6 nM.

“AUAAAUCAUGUAGGAUAUGUGUGGCGAAGCUAUACAGAAGGACAUGAGGAUCACCCAUGUUCUUCCGUCUGCGUACAGACGGAA [11th something] (Eterna round: R96, puzzle: Exclusion NG 1)” was tested, and the “apparent KD of MS2 coat protein” value (input ligand: FMN 200 uM) was 228 nM, the “apparent KD of MS2 coat protein” value [1] was 19.1 nM and the “apparent KD of MS2 coat protein” value (input ligand: none) was 29 nM.

For “AUAACAAGCUUUUUGCUCGUCGUAUAUGACGCUCGAGUCACAUGAGGAUCACCCAUGUCUUCCUGUUUGAUUGUUGA [JR_SV3TOV2_Sub056] (puzzle: Sensor v3, turn-off variant 2)”, the “apparent KD of MS2 coat protein” value [2] was 148 nM, the “apparent KD of MS2 coat protein” value [3] was 122 nM and the “apparent KD of MS2 coat protein” value [4] was 177 nM.

With “AUAACUCUAGUCAGGAUAUGCGAGCAAGGAUUAGAGCAGAAGGGACAUGAGGAUCACCCAUGUGGUAGCUGGGU [Indiraa] (puzzle: Brourd's mod of Exclusion 4)” the “apparent KD of MS2 coat protein” value [2] was 33.6 nM, the “apparent KD of MS2 coat protein” value [3] was 47.3 nM and the “apparent KD of MS2 coat protein” value [4] was 77.5 nM.

With “AUAAGUGAUAAGGAUAUUACUAGCCUCGGCUAGUGAGAAGGUAUCACAUGAGGAUCACCCAUGUGUUCCAAUAA [Ex6/7-B2] (Eterna round: R97, puzzle: Exclusion 6)” the “apparent KD of MS2 coat protein” value (input ligand: FMN 200 uM) was 297 nM and the “apparent KD of MS2 coat protein” value (input ligand: none) was 119 nM.
